Drawing on article PMC4789280, “Characterisation of the broad substrate specificity 2-keto acid decarboxylase Aro10p of Saccharomyces kudriavzevii and its implication in aroma development” (Microbial Cell Factories, 2016), this text covers Km for two proteins.

A word on the Km: it is the substrate concentration at which the rate is half of its maximum.

Substrate in data set [1]: O=C(O)C(=O)Cc1ccccc1
As to the kind of experiment: cells, lysate or membranes. As to conditions: cell extract from aerobic ethanol-limited chemostat culture, phenylalanine as nitrogen source.

Substrate in data set [2]: O=C(O)C(=O)Cc1ccccc1
As to the kind of experiment: decarboxylase activity, cell extract of decarboxylase-null yeast, Michaelis-Menten. Type of data set: biochemical, Saccharomyces kudriavzevii. The following applies: cell extract from aerobic ethanol-limited chemostat culture, phenylalanine as nitrogen source.

B1: ScAro10p (Saccharomyces cerevisiae S288C) (protein)
chain: MAPVTIEKFVNQEERHLVSNRSATIPFGEYIFKRLLSIDTKSVFGVPGDFNLSLLEYLYSPSVESAGLRWVGTCNELNAAYAADGYSRYSNKIGCLITTYGVGELSALNGIAGSFAENVKVLHIVGVAKSIDSRSSNFSDRNLHHLVPQLHDSNFKGPNHKVYHDMVKDRVACSVAYLEDIETACDQVDNVIRDIYKYSKPGYIFVPADFADMSVTCDNLVNVPRISQQDCIVYPSENQLSDIINKITSWIYSSKTPAILGDVLTDRYGVSNFLNKLICKTGIWNFSTVMGKSVIDESNPTYMGQYNGKEGLKQVYEHFELCDLVLHFGVDINEINNGHYTFTYKPNAKIIQFHPNYIRLVDTRQGNEQMFKGINFAPILKELYKRIDVSKLSLQYDSNVTQYTNETMRLEDPTNGQSSIITQVHLQKTMPKFLNPGDVVVCETGSFQFSVRDFAFPSQLKYISQGFFLSIGMALPAALGVGIAMQDHSNAHINGGNVKEDYKPRLILFEGDGAAQMTIQELSTILKCNIPLEVIIWNNNGYTIERAIMGPTRSYNDVMSWKWTKLFEAFGDFDGKYTNSTLIQCPSKLALKLEELKNSNKRSGIELLEVKLGELDFPEQLKCMVEAAALKRNKK
On to B1, for which, in data set [1], the Km came out at 150 ± 10 µM.

B2: SkAro10p (Saccharomyces kudriavzevii IFO 1802) (protein)
chain: MTPVTINTFVNQKEPHLVSNELATISFGEYIFRRLLSTGTKSVFGVPGDFNLSLLEYLYAPSVESAGLKWIGTCNELNAAYAADGYSRYSNNIGCLVTTFGVGELSALNGVAGSFAENVKVLHIVGVAKSIDSRSDNFRDRNMHHLVPQLHGSNFKGPNHKVYHDMVKDRVACSVAYLEDIETACDQVDNVIRDIYKYSKPGYIFVPADFADMSVTCENLINVPHISQQDCITYPSQIQLFDILDRITSWMYSSKTPAILGDVLTDRYGVSEILNKLIYATGIWNFSTVMGKSVIDEANPKYMGQYNGKEGLRQVYEHFESCDLVLHFGVDINEINNGHYTFTYKPNAKIIQFHPNYIRFVDTKYGHEQMFEGINFAPVLMELYKGIDVSRLSLQYDSGVTSYTNETMQLEDPTNDQSNNITQVHLQKVMPKFLSPGDVVVCETGSFQFSVRDFAFPTQLKYISQGFFLSIGMALPAALGVGIAMQDFPNAHISDENIGEGYKPRLILFEGDGAAQMTIQELSTILKCHITIDIFIWNNNGYTIERAIMGPTRAYNDVMSWKWTKLLEAFGDFDRKHTNSTVIEYPSKLAMKLEELKSSNTRDGIELVEVKLGVLDFPEQLKCMVDAAALKRNKK
notes: full-length ARO10 allele on plasmid pG-SkARO10-kX (pGREG526); expressed in S. cerevisiae CEN.PK 711-7C pdc1 pdc5 pdc6 aro10 thi3 null; cell extract
Regarding B2, the Km in data set [2] was found to be 70 ± 5 µM.
